From PMC9179170 (Nature, 2021)

Target: Hsp90α ATP-binding-deficient mutant Hsp90(D93N) (human, UniProt P07900 1-732, D93N)
Assay: cryo-EM structure

- binding result: binds
B1: MBP–GRLBD(520–777) (F602S) (domain or fragment, UniProt P04150 520-777, looked up)
chain: IVPATLPQLTPTLVSLLEVIEPEVLYAGYDSSVPDSTWRIMTTLNMLGGRQVIAAVKWAKAIPGFRNLHLDDQMTLLQYSWMSLMAFALGWRSYRQSSANLLCFAPDLIINEQRMTLPCMYDQCKHMLYVSSELHRLQVSYEEYLCMKTLLLLSSVPKDGLKSQELFDEIRMTYIKELGKAIVKREGNSSQNWQRFYQLTKLLDSMHEVVENLLNYCFQTFLDKTMSIEFPEMLAEIITNQIPKYSNGNIKKLLFHQK
